Measurements taken from the nanobody polyreactivity screen of Harvey et al. (2022).

Experiment: yeast display, Sf9 membrane polyspecificity reagent, FACS + sequencing; frameworks hold sequencing errors
Summary of the method: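 Synthetic nanobody libraries on Saccharomyces cerevisiae BJ5465 were galactose-induced for 36–48 hours, stained 1 hour at 4 °C with 10% biotinylated, detergent-solubilized Sf9 membrane reagent and enriched on streptavidin microbeads. FACS then separated cells into low and high (top ~1%) gates by anti-HA (expression) and streptavidin (reagent binding) fluorescence. Genes were colony-PCR amplified, MiSeq 2 × 250 sequenced and CDR-length filtered. A clone's polyreactivity label is that of its gate of origin.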

Q: With “QVQLVESGGGLVQAGGSLRLSCAASGSIFVYYSMGWYRQAPGKERELVATISSGASTYYADSVKGRFTISRDNAKNTVYLQMNSLKPEDTAVYYCNADNLAGSVEHDYWGQGTQVTVSS” as the sequence, how does the “polyreactivity (PSR sort gate)” value read?
A: low polyreactivity

Q: With “QVQLVESGGGLVQAGGSLRLSCAASGSIFWDYAMGRYRQAPGKERELVASITSGGSTYYADSVKGRFTISRDNAKNTVYLQMNSLKPEDTAVYYCAADGHTRHWGQTGRGAMYYWGQGTQVTVSS” as the sequence, how does the “polyreactivity (PSR sort gate)” value read?
A: low polyreactivity

Q: With “QVQLVESGGGLVQAGGSLRLSCAASGSIFWFNAMGWYRQAPGKEREFVASISRSGGTTYYAHSVKGRFTISRDNAKNTVYLQMNSLKPEDTAVYYFNARAYGNGLGTGYFGKHRYDYWGQGTQVTVSS” as the sequence, how does the “polyreactivity (PSR sort gate)” value read?
A: low polyreactivity

Q: With “QVQLVESGGGLVQAGGSLRLSCAASGSIFWGYAMGWYRQAPGKERELVASIGGDSTNYADSVKGRFTISRDNAKNTVYIQMNSLKQEYTPVYYCAARYRTDYYPEYEYWGQGTEVTVSS” as the sequence, how does the “polyreactivity (PSR sort gate)” value read?
A: low polyreactivity

Q: For “QVQLVESGGGLVQAGGSLRLSCAASGSIFWGYAMGWYRQAPGKERELVATITYGGDSTYYADSVKGRFTISRDNANNTVFLQMNSLKTEDTAVYYCNVGVEPYDYDYWGQCTQVTVSS”, which “polyreactivity (PSR sort gate)” value is on record?
A: low polyreactivity

Q: For “QVQLVESGGGLVQAGGSLRLSCAASGSIFWGYEMGSYRQAPGKERELVAAINRGGSTYYADSVKGRFTRSRDNAKNTVYLQMNSLKPEDTAVYYCAAGYPSWYYGYPYDSWGQGTQVTVSS”, which “polyreactivity (PSR sort gate)” value is on record?
A: low polyreactivity

Q: Which “polyreactivity (PSR sort gate)” value does the source give for “QVQLVESGGGLVQAGGSLRLSCAASGSIFWLYAMGWYRQATGKERELVAAINWTGGSTNYADSVKGRFTISRDNAKNTVYLQMNSLKPEDTAVYFCAAEGVPDALDRVYWGQGTQVTVSS” here?
A: low polyreactivity

Q: Which “polyreactivity (PSR sort gate)” value does the source give for “QVQLVESGGGLVQAGGSLRLSCAASGSIFWPNAMGWYRQAPGKERELVAAIRRSGGSTYYADSVKGRFTISRDNAKNTVYLQMNSLKPEDTAVYYCAARADLHRRVRNIYYSWGQGTQVTVSS” here?
A: low polyreactivity

Q: For “QVQLVESGGGLVQAGGSLRLSCAASGSIFWPNSMGWYRQAPGKERELVAAISWGTGSTYYADSVKGRFTISRDNAKNTVYLQMNSLKPEDTAVYYCAADGAYLDPYYDYWGQGTQVTVSS”, which “polyreactivity (PSR sort gate)” value is on record?
A: low polyreactivity

Q: With “QVQLVESGGGLVQAGGSLRLSCAASGSIFWPYAMGWYRQAPGKEREFVATISSSGSRTHYADSVKGRFTISRDNAKNTVSLQMNSLKPEDTAVYYCNADNPYSDGADSLGNYWGQGTQVTVSS” as the sequence, how does the “polyreactivity (PSR sort gate)” value read?
A: low polyreactivity

Q: With “QVQLVESGGGLVQAGGSLRLSCAASGSIFWQNGMGWYRQAPGKEREFVAAITRTGGSTYYADSVKGRFTISRDNAKNTVYLQMNSLKPEDTAVYYCAARGGYRYTRYDYWGQGTQVTVSS” as the sequence, how does the “polyreactivity (PSR sort gate)” value read?
A: high polyreactivity

Q: With “QVQLVESGGGLVQAGGSLRLSCAASGSIFWRNAMGWYRQAPGKERALVAAISGNGGTTYYADSVKGRFTISRDYAKNTVYLQINSLKPEDTAVYYCAKVGKTYRTYEDWGQGTQVTVSS” as the sequence, how does the “polyreactivity (PSR sort gate)” value read?
A: high polyreactivity

Q: Which “polyreactivity (PSR sort gate)” value does the source give for “QVQLVESGGGLVQAGGSLRLSCAASGSIFWSNAMGWYRQAPGKERELVAAINQSGTSTYYADSVKGRFTISRDNAKNTVYLQMNSLKTEDTAVYYCAADQVGWTYDYWGQGTQVSVSS” here?
A: low polyreactivity

Q: With “QVQLVESGGGLVQAGGSLRLSCAASGSIFWSNAMGWYRQAPGKERELVAAITWSGGSTYADSVKGRFTISRDNAKNTVYLQMNSLKPEDTAVYYCAAERAILSSDKQSLWRFDYWGQGTQVTVSS” as the sequence, how does the “polyreactivity (PSR sort gate)” value read?
A: low polyreactivity

Q: For “QVQLVESGGGLVQAGGSLRLSCAASGSIFWSNAMGWYRQAPGKERELVAAITWSGGSTYADSVKGRFTISRDNAKNTVYLQMNSLKPEDTAVYYCATDYPWAWFESDYWGQGTQVTVSS”, which “polyreactivity (PSR sort gate)” value is on record?
A: low polyreactivity

Q: With “QVQLVESGGGLVQAGGSLRLSCAASGSIFWSNDMGWYRQAPGKERELVAAITITGDTTYYADSVKGRFTISRDNAKNTVYLQMNSLKPEDTAVYYCAAVEVRRVADYGFCLLDYWGQGTQVTVSS” as the sequence, how does the “polyreactivity (PSR sort gate)” value read?
A: high polyreactivity

Q: For “QVQLVESGGGLVQAGGSLRLSCAASGSIFWSYAMGWYRQAPGKERELVAAITWGCGSTNYADSVKGRFTISRDNAKNTVYLQMNSLIAEDTGVYYCATDNRYVVDYDYWGQGTQVTVSS”, which “polyreactivity (PSR sort gate)” value is on record?
A: high polyreactivity

Q: For “QVQLVESGGGLVQAGGSLRLSCAASGSIFWTIAMGWYRQSPGKERELVASIHSSDASTDYADSVKGRFTISRDNAKNTVYLKMNSLKPEDTAVYYCNAAGAYPYYSEDYYWGQGTQVTVSS”, which “polyreactivity (PSR sort gate)” value is on record?
A: low polyreactivity

Q: With “QVQLVESGGGLVQAGGSLRLSCAASGSIFWTNAMGCYRQAPGKERELVASIHSSDASTDYADSVKGRFTISRDNEKNTVYLQMNSLKPEDTAVYYCNAAGAYPYYSEDYYWGQGSQVTVSS” as the sequence, how does the “polyreactivity (PSR sort gate)” value read?
A: low polyreactivity

Q: With “QVQLVESGGGLVQAGGSLRLSCAASGSIFWTNAMGWYRQAPGKERELVAAIRVSTGSTYYADSVKGRFTISRDNAKNTVYLQMNSLKPEVTAVYYFAARTYGWGYDYWGQGTQVTVSS” as the sequence, how does the “polyreactivity (PSR sort gate)” value read?
A: low polyreactivity

Q: Which “polyreactivity (PSR sort gate)” value does the source give for “QVQLVESGGGLVQAGGSLRLSCAASGSIFWVYAMGWYRQAPGKEREFVATISTDGGSTHYADSVKGRFTISRDNAKNTFYLQMNSLKPEDTAVYYCAADTPWYDDNYDYWGQGTQVTVSS” here?
A: low polyreactivity

Q: With “QVQLVESGGGLVQAGGSLRLSCAASGSIFWVYTMGWYREAPGKERELVAASRSRGGSTYYADSVKGRFTISRDKAKNTVYLQMNSLKPEDTAVYYGNADYYYEVDSWGQGTQVTVSS” as the sequence, how does the “polyreactivity (PSR sort gate)” value read?
A: low polyreactivity

Q: With “QVQLVESGGGLVQAGGSLRLSCAASGSIFWWNAMGWYRQAPGKERELVAGISRGGSTYYADSVKGRFTISRDNAKNTVYLQMNSLKPEDTAVYYCNADSDPVPAGYDYWGQGTQVTLSS” as the sequence, how does the “polyreactivity (PSR sort gate)” value read?
A: low polyreactivity

Q: For “QVQLVESGGGLVQAGGSLRLSCAASGSIFWWNAMGWYRQAPGKERELVARITRGGTTYYADSVKGRFTISRDNAKNTVYLQMNSLKPEDTAVYSCNAVSGWSRYDFWGQGSQVTVSS”, which “polyreactivity (PSR sort gate)” value is on record?
A: low polyreactivity

Q: Which “polyreactivity (PSR sort gate)” value does the source give for “QVQLVESGGGLVQAGGSLRLSCAASGSIFWWNTMGWYRQAPGTERELVAAITFSGGSTYYADSVKGRFTISRDNAKNTVYLQMNSLKPEDTAVYYCNADGWVSVRGTWSDGGYWGQGTQVTVSS” here?
A: low polyreactivity

Q: With “QVQLVESGGGLVQAGGSLRLSCAASGSIFWYNAMGWYRQAPGKERELVAAIRWRGGSTYYADSVKGRFTISRDNAKNTVYLQMNSLKPEDTAVYYCAAQVYVSQLYTSYYYWGQGTQVTVSS” as the sequence, how does the “polyreactivity (PSR sort gate)” value read?
A: high polyreactivity

Q: Which “polyreactivity (PSR sort gate)” value does the source give for “QVQLVESGGGLVQAGGSLRLSCAASGSIFWYNAMGWYRQAPGKERELVAAISVGGGSTSSADSVKGRFTISRDNAKNTVYLQMHSLKPEDTAVYYCNSVRYYRLFAHYGEYGYWGQGTQVTVSS” here?
A: high polyreactivity

Q: With “QVQLVESGGGLVQAGGSLRLSCAASGSIFWYNAMGWYRQAPGKERELVAGITSGGDTNYADSVKGRFTISRDNAKNTVYLQMNSLKPEDTAVYYCAKRWYGGRRYDYWGQGTQVTVSS” as the sequence, how does the “polyreactivity (PSR sort gate)” value read?
A: low polyreactivity

Q: For “QVQLVESGGGLVQAGGSLRLSCAASGSIFWYYAMGWYRQAPGKERELVAAISRSGGSTYYADSVKGRFTISRDNAKNTVYLQMNSLKPEDTAVYYCAAGYSSLRRFGVYYWGQGTQVTVSS”, which “polyreactivity (PSR sort gate)” value is on record?
A: high polyreactivity

Q: For “QVQLVESGGGLVQAGGSLRLSCAASGSIFWYYAMGWYRQAPGKERELVAGITRGGSTSYADSVKGRFTISRDNAKKTVYLQMNSLKPEDTAVYYCAKRNPYSRYGYWGQGTQVTVSS”, which “polyreactivity (PSR sort gate)” value is on record?
A: high polyreactivity
